Laboratory results as given in patent US20210388087A1 (Chugai, published 2021).

T1: Human CD3eg linker (human)
T1 construct: single-chain construct; also called recombinant human CD3
T1 chain: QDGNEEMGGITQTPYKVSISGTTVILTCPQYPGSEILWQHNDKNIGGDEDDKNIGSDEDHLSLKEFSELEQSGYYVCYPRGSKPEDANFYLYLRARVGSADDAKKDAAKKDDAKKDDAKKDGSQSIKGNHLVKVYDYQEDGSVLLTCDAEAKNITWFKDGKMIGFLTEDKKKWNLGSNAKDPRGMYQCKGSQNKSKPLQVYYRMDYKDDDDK


Biological target: T1, Human CD3eg linker
Assay: SPR, vs unmutated H183/L072

| Binder | fold change of affinity [fold] |
| --- | --- |
| dBBDu183H G100hQ/dBBDu072L (antibody, name in Kabat numbering, V domains shown) VH: QVQLVESGGGLVQPGRSLRLSCAASGFTFSNAWMHWVRQAPGKGLEWVAQIKDKGNAYAAYYAPSVKGRFTISRDDSKNSIYLQMNSLKTEDTAVYYCHYVHYASASTVLPAFQVDAWGQGTTVTVSS VL: DIVMTQSPLSLPVTPGEPASISCQASQELVHMNRNTYLHWYQQKPGQAPRLLIYKVSNRFPGVPDRFSGSGSGTDFTLKISRVEAEDVGVYYCAQGTSVPFTFGQGTKLEIK | 0.4 |
| dBBDu183H G100hV/dBBDu072L (antibody, name in Kabat numbering, V domains shown) VH: QVQLVESGGGLVQPGRSLRLSCAASGFTFSNAWMHWVRQAPGKGLEWVAQIKDKGNAYAAYYAPSVKGRFTISRDDSKNSIYLQMNSLKTEDTAVYYCHYVHYASASTVLPAFVVDAWGQGTTVTVSS VL: DIVMTQSPLSLPVTPGEPASISCQASQELVHMNRNTYLHWYQQKPGQAPRLLIYKVSNRFPGVPDRFSGSGSGTDFTLKISRVEAEDVGVYYCAQGTSVPFTFGQGTKLEIK | 3.4 |
| dBBDu183H G100hY/dBBDu072L (antibody, name in Kabat numbering, V domains shown) VH: QVQLVESGGGLVQPGRSLRLSCAASGFTFSNAWMHWVRQAPGKGLEWVAQIKDKGNAYAAYYAPSVKGRFTISRDDSKNSIYLQMNSLKTEDTAVYYCHYVHYASASTVLPAFYVDAWGQGTTVTVSS VL: DIVMTQSPLSLPVTPGEPASISCQASQELVHMNRNTYLHWYQQKPGQAPRLLIYKVSNRFPGVPDRFSGSGSGTDFTLKISRVEAEDVGVYYCAQGTSVPFTFGQGTKLEIK | 0 |
| dBBDu183H H93F/dBBDu072L (antibody, name in Kabat numbering, V domains shown) VH: QVQLVESGGGLVQPGRSLRLSCAASGFTFSNAWMHWVRQAPGKGLEWVAQIKDKGNAYAAYYAPSVKGRFTISRDDSKNSIYLQMNSLKTEDTAVYYCFYVHYASASTVLPAFGVDAWGQGTTVTVSS VL: DIVMTQSPLSLPVTPGEPASISCQASQELVHMNRNTYLHWYQQKPGQAPRLLIYKVSNRFPGVPDRFSGSGSGTDFTLKISRVEAEDVGVYYCAQGTSVPFTFGQGTKLEIK | 0 |
| dBBDu183H H93D/dBBDu072L (antibody, name in Kabat numbering, V domains shown) VH: QVQLVESGGGLVQPGRSLRLSCAASGFTFSNAWMHWVRQAPGKGLEWVAQIKDKGNAYAAYYAPSVKGRFTISRDDSKNSIYLQMNSLKTEDTAVYYCDYVHYASASTVLPAFGVDAWGQGTTVTVSS VL: DIVMTQSPLSLPVTPGEPASISCQASQELVHMNRNTYLHWYQQKPGQAPRLLIYKVSNRFPGVPDRFSGSGSGTDFTLKISRVEAEDVGVYYCAQGTSVPFTFGQGTKLEIK | 0 |
| dBBDu183H G100hT/dBBDu072L (antibody, name in Kabat numbering, V domains shown) VH: QVQLVESGGGLVQPGRSLRLSCAASGFTFSNAWMHWVRQAPGKGLEWVAQIKDKGNAYAAYYAPSVKGRFTISRDDSKNSIYLQMNSLKTEDTAVYYCHYVHYASASTVLPAFTVDAWGQGTTVTVSS VL: DIVMTQSPLSLPVTPGEPASISCQASQELVHMNRNTYLHWYQQKPGQAPRLLIYKVSNRFPGVPDRFSGSGSGTDFTLKISRVEAEDVGVYYCAQGTSVPFTFGQGTKLEIK | 2.3 |
| dBBDu183H G100hR/dBBDu072L (antibody, name in Kabat numbering, V domains shown) VH: QVQLVESGGGLVQPGRSLRLSCAASGFTFSNAWMHWVRQAPGKGLEWVAQIKDKGNAYAAYYAPSVKGRFTISRDDSKNSIYLQMNSLKTEDTAVYYCHYVHYASASTVLPAFRVDAWGQGTTVTVSS VL: DIVMTQSPLSLPVTPGEPASISCQASQELVHMNRNTYLHWYQQKPGQAPRLLIYKVSNRFPGVPDRFSGSGSGTDFTLKISRVEAEDVGVYYCAQGTSVPFTFGQGTKLEIK | 0.4 |
| dBBDu183H H93E/dBBDu072L (antibody, name in Kabat numbering, V domains shown) VH: QVQLVESGGGLVQPGRSLRLSCAASGFTFSNAWMHWVRQAPGKGLEWVAQIKDKGNAYAAYYAPSVKGRFTISRDDSKNSIYLQMNSLKTEDTAVYYCEYVHYASASTVLPAFGVDAWGQGTTVTVSS VL: DIVMTQSPLSLPVTPGEPASISCQASQELVHMNRNTYLHWYQQKPGQAPRLLIYKVSNRFPGVPDRFSGSGSGTDFTLKISRVEAEDVGVYYCAQGTSVPFTFGQGTKLEIK | 0 |
| dBBDu183H G100hS/dBBDu072L (antibody, name in Kabat numbering, V domains shown) VH: QVQLVESGGGLVQPGRSLRLSCAASGFTFSNAWMHWVRQAPGKGLEWVAQIKDKGNAYAAYYAPSVKGRFTISRDDSKNSIYLQMNSLKTEDTAVYYCHYVHYASASTVLPAFSVDAWGQGTTVTVSS VL: DIVMTQSPLSLPVTPGEPASISCQASQELVHMNRNTYLHWYQQKPGQAPRLLIYKVSNRFPGVPDRFSGSGSGTDFTLKISRVEAEDVGVYYCAQGTSVPFTFGQGTKLEIK | 1.1 |
| dBBDu183H G100hW/dBBDu072L (antibody, name in Kabat numbering, V domains shown) VH: QVQLVESGGGLVQPGRSLRLSCAASGFTFSNAWMHWVRQAPGKGLEWVAQIKDKGNAYAAYYAPSVKGRFTISRDDSKNSIYLQMNSLKTEDTAVYYCHYVHYASASTVLPAFWVDAWGQGTTVTVSS VL: DIVMTQSPLSLPVTPGEPASISCQASQELVHMNRNTYLHWYQQKPGQAPRLLIYKVSNRFPGVPDRFSGSGSGTDFTLKISRVEAEDVGVYYCAQGTSVPFTFGQGTKLEIK | 0 |

The remaining lines, values ahead:

| fold change of affinity [fold] | Binder |
| --- | --- |
| 0.2 | dBBDu183H H93K/dBBDu072L (antibody, name in Kabat numbering, V domains shown) VH: QVQLVESGGGLVQPGRSLRLSCAASGFTFSNAWMHWVRQAPGKGLEWVAQIKDKGNAYAAYYAPSVKGRFTISRDDSKNSIYLQMNSLKTEDTAVYYCKYVHYASASTVLPAFGVDAWGQGTTVTVSS VL: DIVMTQSPLSLPVTPGEPASISCQASQELVHMNRNTYLHWYQQKPGQAPRLLIYKVSNRFPGVPDRFSGSGSGTDFTLKISRVEAEDVGVYYCAQGTSVPFTFGQGTKLEIK |
| 0 | dBBDu183H H93Q/dBBDu072L (antibody, name in Kabat numbering, V domains shown) VH: QVQLVESGGGLVQPGRSLRLSCAASGFTFSNAWMHWVRQAPGKGLEWVAQIKDKGNAYAAYYAPSVKGRFTISRDDSKNSIYLQMNSLKTEDTAVYYCQYVHYASASTVLPAFGVDAWGQGTTVTVSS VL: DIVMTQSPLSLPVTPGEPASISCQASQELVHMNRNTYLHWYQQKPGQAPRLLIYKVSNRFPGVPDRFSGSGSGTDFTLKISRVEAEDVGVYYCAQGTSVPFTFGQGTKLEIK |
| 2.4 | dBBDu183H H93R/dBBDu072L (antibody, name in Kabat numbering, V domains shown) VH: QVQLVESGGGLVQPGRSLRLSCAASGFTFSNAWMHWVRQAPGKGLEWVAQIKDKGNAYAAYYAPSVKGRFTISRDDSKNSIYLQMNSLKTEDTAVYYCRYVHYASASTVLPAFGVDAWGQGTTVTVSS VL: DIVMTQSPLSLPVTPGEPASISCQASQELVHMNRNTYLHWYQQKPGQAPRLLIYKVSNRFPGVPDRFSGSGSGTDFTLKISRVEAEDVGVYYCAQGTSVPFTFGQGTKLEIK |
| 0 | dBBDu183H H93N/dBBDu072L (antibody, name in Kabat numbering, V domains shown) VH: QVQLVESGGGLVQPGRSLRLSCAASGFTFSNAWMHWVRQAPGKGLEWVAQIKDKGNAYAAYYAPSVKGRFTISRDDSKNSIYLQMNSLKTEDTAVYYCNYVHYASASTVLPAFGVDAWGQGTTVTVSS VL: DIVMTQSPLSLPVTPGEPASISCQASQELVHMNRNTYLHWYQQKPGQAPRLLIYKVSNRFPGVPDRFSGSGSGTDFTLKISRVEAEDVGVYYCAQGTSVPFTFGQGTKLEIK |
| 0 | dBBDu183H H93G/dBBDu072L (antibody, name in Kabat numbering, V domains shown) VH: QVQLVESGGGLVQPGRSLRLSCAASGFTFSNAWMHWVRQAPGKGLEWVAQIKDKGNAYAAYYAPSVKGRFTISRDDSKNSIYLQMNSLKTEDTAVYYCGYVHYASASTVLPAFGVDAWGQGTTVTVSS VL: DIVMTQSPLSLPVTPGEPASISCQASQELVHMNRNTYLHWYQQKPGQAPRLLIYKVSNRFPGVPDRFSGSGSGTDFTLKISRVEAEDVGVYYCAQGTSVPFTFGQGTKLEIK |
